Results published in paper PMC6957272, “Activation of a nucleotide-dependent RCK domain requires binding of a cation cofactor to a conserved site” (eLife, 2019).

T1: KtrB (B. subtilis, UniProt O32081 1-445)
T1 construct: KtrB, membrane protein of the B. subtilis KtrAB cation channel; The Strep tag held KtrB on Strep-Tactin beads while KtrA was added to assemble the complex; it was cleaved by thrombin before the size-exclusion step; also called wild-type KtrB; source: E. coli BL21(DE3), extracted with DDM, purified (Strep-Tactin Sepharose, size exclusion); not shown: Strep, N-terminal, cleaved
T1 sequence (looked up): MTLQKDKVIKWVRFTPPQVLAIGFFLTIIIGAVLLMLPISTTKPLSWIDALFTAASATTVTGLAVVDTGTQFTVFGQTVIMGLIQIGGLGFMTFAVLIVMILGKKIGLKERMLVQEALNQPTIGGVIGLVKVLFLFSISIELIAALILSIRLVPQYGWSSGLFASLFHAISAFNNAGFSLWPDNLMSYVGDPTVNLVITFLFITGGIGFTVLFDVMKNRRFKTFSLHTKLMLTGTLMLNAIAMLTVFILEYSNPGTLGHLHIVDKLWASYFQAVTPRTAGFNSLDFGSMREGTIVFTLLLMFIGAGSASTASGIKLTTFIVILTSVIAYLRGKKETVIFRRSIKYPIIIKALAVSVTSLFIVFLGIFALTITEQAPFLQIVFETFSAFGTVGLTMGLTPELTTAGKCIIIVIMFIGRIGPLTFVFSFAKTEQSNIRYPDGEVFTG


How the values were obtained:
[1] = target: T1, KtrB; experiment: SEC; purified KtrA-ATP (or ADP) added to Strep-KtrB on Strep-Tactin beads, 30 min 4°C, washed, eluted with desthiobiotin, tag cleaved by thrombin, then Superdex-S200 in Buffer F (10 mM HEPES, 7 mM NMG pH 8.0, 150 mM KCl, 0.5 mM DDM, 5 mM DTT, 0.2 mM EDTA); conditions: both partners purified
[2] = target: the molecule itself; experiment: crystal structure; KtrA (WT and mutants) with 1 mM ATP or ADP, sitting-drop vapor diffusion at 20°C; WT-ATP with 5 mM CaCl2
[3] = target: the molecule itself; experiment: SEC; KtrA alone, bound to ATP or ADP; Superdex-S200, Buffer C (50 mM Tris-HCl pH 7.5, 150 mM KCl, 5 mM DTT, 0.2 mM EDTA)

| Binder | binding result [1] | stoichiometry N [2] | stoichiometry N [3] |
| --- | --- | --- | --- |
| wild-type KtrA (natural protein, B. subtilis, KtrA, RCK domain protein of the B. subtilis KtrAB cation channel; tag-less; Tag-less, cloned in a modified pET-24d vector; eluted from ATP-agarose with ATP or ADP and kept with 1 mM nucleotide; also called KtrAWT; WT; source: E. coli BL21(DE3), purified (anion exchange, ATP-agarose, size exclusion)) MGRIKNKQFAVIGLGRFGGSICKELHRMGHEVLAVDINEEKVNAYASYATHAVIANATEENELLSLGIRNFEYVIVAIGANIQASTLTTLLLKELDIPNIWVKAQNYYHHKVLEKIGADRIIHPEKDMGVKIAQSLSDENVLNYIDLSDEYSIVELLATRKLDSKSIIDLNVRAKYGCTILAIKHHGDICLSPAPEDIIREQDCLVIMGHKKDIKRFENEGM | binds | 8 | – |
| KtrA R16K mutant (natural protein, B. subtilis, KtrA of B. subtilis with R16K; tag-less; source: E. coli BL21(DE3), purified (anion exchange, ATP-agarose, size exclusion)) MGRIKNKQFAVIGLGKFGGSICKELHRMGHEVLAVDINEEKVNAYASYATHAVIANATEENELLSLGIRNFEYVIVAIGANIQASTLTTLLLKELDIPNIWVKAQNYYHHKVLEKIGADRIIHPEKDMGVKIAQSLSDENVLNYIDLSDEYSIVELLATRKLDSKSIIDLNVRAKYGCTILAIKHHGDICLSPAPEDIIREQDCLVIMGHKKDIKRFENEGM | – | 8 | – |

Further lines, with some results ahead:

| binding result [1] | Binder | stoichiometry N [2] | stoichiometry N [3] |
| --- | --- | --- | --- |
| binds | KtrA A80P mutant (natural protein, B. subtilis, KtrA of B. subtilis with A80P; tag-less; source: E. coli BL21(DE3), purified (anion exchange, ATP-agarose, size exclusion)) MGRIKNKQFAVIGLGRFGGSICKELHRMGHEVLAVDINEEKVNAYASYATHAVIANATEENELLSLGIRNFEYVIVAIGPNIQASTLTTLLLKELDIPNIWVKAQNYYHHKVLEKIGADRIIHPEKDMGVKIAQSLSDENVLNYIDLSDEYSIVELLATRKLDSKSIIDLNVRAKYGCTILAIKHHGDICLSPAPEDIIREQDCLVIMGHKKDIKRFENEGM | – | 8 |
| binds | KtrA E125Q mutant (natural protein, B. subtilis, KtrA of B. subtilis with E125Q; tag-less; source: E. coli BL21(DE3), purified (anion exchange, ATP-agarose, size exclusion)) MGRIKNKQFAVIGLGRFGGSICKELHRMGHEVLAVDINEEKVNAYASYATHAVIANATEENELLSLGIRNFEYVIVAIGANIQASTLTTLLLKELDIPNIWVKAQNYYHHKVLEKIGADRIIHPQKDMGVKIAQSLSDENVLNYIDLSDEYSIVELLATRKLDSKSIIDLNVRAKYGCTILAIKHHGDICLSPAPEDIIREQDCLVIMGHKKDIKRFENEGM | 8 | – |
| binds | KtrA R16A mutant (natural protein, B. subtilis, KtrA of B. subtilis with R16A; tag-less; source: E. coli BL21(DE3), purified (anion exchange, ATP-agarose, size exclusion)) MGRIKNKQFAVIGLGAFGGSICKELHRMGHEVLAVDINEEKVNAYASYATHAVIANATEENELLSLGIRNFEYVIVAIGANIQASTLTTLLLKELDIPNIWVKAQNYYHHKVLEKIGADRIIHPEKDMGVKIAQSLSDENVLNYIDLSDEYSIVELLATRKLDSKSIIDLNVRAKYGCTILAIKHHGDICLSPAPEDIIREQDCLVIMGHKKDIKRFENEGM | 8 | – |
